# Reference: patent publication US20230382966A1, “NOVEL KLOTHO INTERACTION SITE IN THE C-TERMINUS OF FGF23” (INDIANA UNIVERSITY RESEARCH AND TECHNOLOGY CORPORATION, priority 2020, published 2023)
# Numbering of substitutions follows the chain as printed.
# B1: FGF23 A^188: FGF23^25-240, A^188 (protein)
# chain: YPNASPLLGSSWGGLIHLYTATARNSYHLQIHKNGHVDGAPHQTIYSALMIRSEDAGFVVITGVMSRRYLCMDFRGNIFGSHYFDPENCRFQHQTLENGYDVYHSPQYHFLVSLGRAKRAFLPGMNPPPYSQFLSRRNEIPLIHFNTPIPRRHTRSAEDDSERAPLNVLKPRARMTPAPASCSQELPSAEDNSPMASDPLGVVRGGRVNTHAGGTG
# B2: FGF23 A^188,222: FGF23^25-240, A^188,222 (protein)
# chain: B1 chain with D198A
# B3: FGF23: FGF23^25-240, native protein (protein)
# chain: B1 chain with A164D
# Experiments:
# [1] = system: FGF21-signaling in 293/KLB cells; assay: Block of FGF21-signaling in 293/KLB cells; format: cell-based; conditions: Table 1, FGF21 associated antagonist
# Description: The sequence homology in these endocrine FGF peptides (FGF23^180-205, FGF23^212-239, FGF19^191-216 and FGF21^185-209) is provided in FIG. 2.
# [2] = system: FGFR/KL-downstream targets Cyp24a1, Cyp27b1 and Egr1; assay: Mouse kidney gene expression after FGF23 protein analogs (quantitative real time PCR); format: in vivo; conditions: WT mice, 0.5 mg/kg, 3 hours
# Experimental: (§1) FIGS. 5A-5D provide data relating to the activities of FGF23-analogs containing one or two active KL-interaction sites by in vitro and in vivo methods. […] FIGS. 5B-5D are scatter plots presenting an in vivo assessment of FGF23-activity in mice. WT mice were treated with 0.5 mg/kg body weight with either FGF23, FGF23 A^188, FGF23 A^222, FGF23 A^188,222, or vehicle, n=5 or 10/group, and post 3-hours the gene expression changes were studied by quantitative real time PCR for target genes, FIG. 5B represents measurement of Cyp24a1, FIG. 5C represents measurement of Cyp27b1, and FIG. 5D represents measurement of Egr1. The data is presented as a scatter plot where each dot represents one animal, mean ±SEM. One-way ANOVA with Tukey's comparison was employed for statistical analyses where***P<0.001 vs. vehicle; #P<0.05, ##P<0.01, ###P<0.001 vs FGF23; and $$$P<0.001 vs FGF23 A^188,222 was calculated.
# To test whether C28 as the second KL-interaction site can promote FGF23 in vivo activity, the single site FGF23-analogs were assessed for their ability to alter kidney gene expression in normal mice. Four proteins (FGF23, FGF23 A188, FGF23 A222 or FGF23 A188, 222 analogs) were each dosed to mice 0.5 mg/kg and 3 hours later quantitative real time PCR was employed to assess kidney mRNA expression of the FGFR/KL-downstream targets Cyp24a1, Cyp27b1 and early growth response protein 1 (Egr1). […] This is not surprising since the optimal treatment time for Egrl modulation is as early as 1 hour for FGF-signaling measurements. The magnitude in upregulation of gene expression for Cyp24a1 was the highest, with twenty-fold induction by native FGF23 treatment (FIG. 5B). […] Similarly, the Egrl induction is reduced for FGF23 A188 and FGF23 A222 analogs as compared to native FGF23 (P<0.05, FIG. 5D), but no difference is observed among the analogs and FGF23 for Cyp27b1 (FIG. 5C).
# FGFR/KL complex = assay: FGF23-signaling activity (stimulation of Erk-phosphorylation) in 293/KL cells; format: cell-based, human; conditions: for EC50: Table 3, p-Erk
# Experimental: as §1
# Whether FGF23-based agonism can employ each of the two KL-interaction sites as witnessed in the C72 peptide antagonist was studied. To do so, a selective mutation at position Asp188 or Asp222 was made in the native FGF23. […] This is consistent with prior reports where C-terminal sequence deletion after residue 205 position had no apparent effect on cellular signaling (FIG. 5A, Table 3). […] Asp188 residue is purported to be singularly essential for KL-binding and FGF23 activity, and its importance was substantiated by the lack of antagonism when the C26 peptide was similarly mutated from Asp to Ala (FIG. 4A). […] To confirm that these observations were not resulting from unexpected changes in higher order structure that was not apparent in biosynthesis, purification, or formulation of the mutant proteins their biophysical integrity were directly assessed by thermal denaturation.
# The N-terminal domain of the endocrine FGFs primarily determines the FGFR-activation while the C-terminal sequence guides the co-receptor specificity with a Klotho co-receptor, KL or KLB. The receptor complex specificity among the endocrine FGF-proteins can be modulated by altering their C-terminal domains. Consequently, two FGF21-23 chimeric protein analogs were prepared containing the FGF21 N-terminal core with its C-terminal KLB-binding peptide replaced with an FGF23 C-terminal peptide sequence constituted by C72 (FGF21-23 C72) or C26 (FGF21-23 C26) (Table 3).
# Chain of FGFR/KL complex (Q9UEF7 34-1012, one chain of several): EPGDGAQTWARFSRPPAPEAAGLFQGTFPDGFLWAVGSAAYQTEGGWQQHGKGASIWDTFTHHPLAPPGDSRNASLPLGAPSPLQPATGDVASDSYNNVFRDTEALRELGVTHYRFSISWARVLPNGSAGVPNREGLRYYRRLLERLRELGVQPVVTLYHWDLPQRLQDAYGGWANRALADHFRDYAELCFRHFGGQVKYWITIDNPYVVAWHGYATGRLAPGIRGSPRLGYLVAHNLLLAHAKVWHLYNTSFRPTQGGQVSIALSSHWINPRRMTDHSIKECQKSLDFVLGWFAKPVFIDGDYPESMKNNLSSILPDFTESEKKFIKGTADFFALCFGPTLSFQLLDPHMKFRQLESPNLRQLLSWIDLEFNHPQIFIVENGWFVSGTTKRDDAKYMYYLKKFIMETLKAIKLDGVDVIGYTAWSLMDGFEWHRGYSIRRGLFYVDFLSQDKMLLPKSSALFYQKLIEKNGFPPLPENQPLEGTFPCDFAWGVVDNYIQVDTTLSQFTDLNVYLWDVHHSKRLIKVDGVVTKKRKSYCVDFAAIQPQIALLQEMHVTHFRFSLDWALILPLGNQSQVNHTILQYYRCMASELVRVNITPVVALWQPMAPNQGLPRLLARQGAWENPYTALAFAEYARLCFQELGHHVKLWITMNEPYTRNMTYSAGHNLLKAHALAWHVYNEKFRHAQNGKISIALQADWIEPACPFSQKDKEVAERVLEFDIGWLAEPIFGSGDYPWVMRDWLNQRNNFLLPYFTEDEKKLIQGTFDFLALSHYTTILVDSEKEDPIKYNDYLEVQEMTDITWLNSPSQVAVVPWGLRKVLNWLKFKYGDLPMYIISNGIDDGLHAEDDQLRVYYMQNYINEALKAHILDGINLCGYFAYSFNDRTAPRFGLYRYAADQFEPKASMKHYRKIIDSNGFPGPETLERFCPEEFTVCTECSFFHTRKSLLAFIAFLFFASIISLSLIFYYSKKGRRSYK
Molecule,IC50 [1] [nM],kidney Cyp24a1 mRNA expression vs vehicle [2],kidney Cyp27b1 mRNA expression vs vehicle [2],Egr1 induction as compared to native FGF23 ([2]; kidney),magnitude of Cyp24a1 effect as compared to native FGF23 ([2]; kidney),FGF23-type agonism / FGFR/KL activation (in words) (FGFR/KL complex),EC50 (FGFR/KL complex) [nM],magnitude of upregulation of Cyp24a1 gene expression (induction) ([2]; kidney)
"21C25: FGF21 associated antagonist (FGF21^185-209, C25) (PPDVGSSDPLSMVGPSQGRSPSYAS)",75.2 ± 19,–,–,–,–,–,–,–
B1,–,significant elevation,coordinate suppression,reduced,fractionally reduced,retained full potency,0.28 ± 0.08,–
B2,–,inactive,inactive,statistically different,–,bioactivity was abrogated,–,–
B3,–,significant elevation,coordinate suppression,–,–,–,0.16 ± 0.05,twenty-fold
